± gives the uncertainty stated by the source.

First the molecules themselves.
B1: Double-stranded RNA-specific adenosine deaminase, residues 296 to 358; numbered along this chain, P55265 (parent)
chain: MAEIKEKICDYLFNVSDSSALNLAKNIGLTKARDINAVLIDMERQGDVYRQGTTPPIWHLTDK

The variants in this data set derive from B1. Put plainly: abundance fitness (aPCA) (normalised: wild type 0, dead -1); higher = more abundant; growth selection in yeast, the domain comes from the species named. The conditions noted are these: Homo sapiens.
Turning to MAEIKEKICDYLFNVSDSSALNLAKNIGLTKARDINAVLIDDERQGDVYRQGTTPPIWHLTDK, the abundance fitness was -0.551 ± 0.082.
As to MAEIKEKICDYLFNVSDSSALNLAKNIGLTKARDINAVLIDGERQGDVYRQGTTPPIWHLTDK, the abundance fitness was -0.485 ± 0.062.
Under MAEIKEKICDYLFNVSDSSALNLAKNIGLTKARDINAVLIDCERQGDVYRQGTTPPIWHLTDK stands -0.742 ± 0.091; under MAEIKEKICDYLFNVSDSSALNLAKNIGLTKARDINAVLIDAERQGDVYRQGTTPPIWHLTDK, -0.479 ± 0.056; under MAEIKEKICDYLFNVSDSSALNLAKNIGLTKARDINAVLIDEERQGDVYRQGTTPPIWHLTDK, -0.22 ± 0.078.
Then MAEIKEKICDYLFNVSDSSALNLAKNIGLTKARDINAVLIDFERQGDVYRQGTTPPIWHLTDK, with -0.965 ± 0.14.
Then MAEIKEKICDYLFNVSDSSALNLAKNIGLTKARDINRVLIDMERQGDVYRQGTTPPIWHLTDK, with -0.054 ± 0.04; and MAEIKEKICDYLFNVSDSSALNLAKNIGLTKARDINNVLIDMERQGDVYRQGTTPPIWHLTDK, with -0.247 ± 0.097; and MAEIKEKICDYLFNVSDSSALNLAKNIGLTKARDINWVLIDMERQGDVYRQGTTPPIWHLTDK, with -0.453 ± 0.067.
Take MAEIKEKICDYLFNVSDSSALNLAKNIGLTKARDINSVLIDMERQGDVYRQGTTPPIWHLTDK: the abundance fitness was -0.025 ± 0.054.
Under MAEIKEKICDYLFNVSDSSALNLAKNIGLTKARDINTVLIDMERQGDVYRQGTTPPIWHLTDK stands -0.173 ± 0.068.
Under MAEIKEKICDYLFNVSDSSALNLAKNIGLTKARDINYVLIDMERQGDVYRQGTTPPIWHLTDK stands -0.457 ± 0.12; under MAEIKEKICDYLFNVSDSSALNLAKNIGLTKARDINPVLIDMERQGDVYRQGTTPPIWHLTDK, -0.145 ± 0.062.
Under MAEIKEKICDYLFNVSDSSALNLAKNIGLTKARDINQVLIDMERQGDVYRQGTTPPIWHLTDK stands -0.11 ± 0.06; under MAEIKEKICDYLFNVSDSSALNLAKNIGLTKARDINAVLHDMERQGDVYRQGTTPPIWHLTDK, -0.218 ± 0.071; under MAEIKEKICDYLFNVSDSSALNLAKNIGLTKARDINAVLGDMERQGDVYRQGTTPPIWHLTDK, -0.265 ± 0.055.
Take MAEIKEKICDYLFNVSDSSALNLAKNIGLTKARDINAVLNDMERQGDVYRQGTTPPIWHLTDK: the abundance fitness came to 0.075 ± 0.052.
Under MAEIKEKICDYLFNVSDSSALNLAKNIGLTKARDINAVLTDMERQGDVYRQGTTPPIWHLTDK stands -0.065 ± 0.074; under MAEIKEKICDYLFNVSDSSALNLAKNIGLTKARDINAVLVDMERQGDVYRQGTTPPIWHLTDK, -0.049 ± 0.054.
Under MAEIKEKICDYLFNVSDSSALNLAKNIGLTKARDINAVLFDMERQGDVYRQGTTPPIWHLTDK stands -0.165 ± 0.11; under MAEIKEKICDYLFNVSDSSALNLAKNIGLTKARDINAVLYDMERQGDVYRQGTTPPIWHLTDK, 0.043 ± 0.033.
In the case of MAEIKEKICDYLFNVSDSSALNLAKNIGLTKARDINAVLRDMERQGDVYRQGTTPPIWHLTDK, the abundance fitness was -0.054 ± 0.048.
Under MAEIKEKICDYLFNVSDSSALNLAKNIGLTKARDINAVLQDMERQGDVYRQGTTPPIWHLTDK stands 0.159 ± 0.068; under MAEIKEKICDYLFNVSDSSALNLAKNIGLTKARDINAVLPDMERQGDVYRQGTTPPIWHLTDK, -0.387 ± 0.07; under MAEIKEKICDYLFNVSDSSALNLAKNIGLTKARDINAVLWDMERQGDVYRQGTTPPIWHLTDK, -0.388 ± 0.066.
Regarding MAEIKEKICDYLFNVSDSSALNLAKNIGLTKARDINAVLSDMERQGDVYRQGTTPPIWHLTDK, the abundance fitness came out at 0.117 ± 0.041.
Take MAEIKEKICDYLFNVSDSSALNLAKNIGLTKARDINAVLLDMERQGDVYRQGTTPPIWHLTDK: the abundance fitness came out at 0.128 ± 0.039.
For the variant MAEIKEKICDYLFNVSDSSALNLAKNIGLTKARDINAVLDDMERQGDVYRQGTTPPIWHLTDK, the abundance fitness is -0.093 ± 0.062.
Then MAEIKEKICDYLFNVSDSSALNLAKNIGLTKARDINAVLCDMERQGDVYRQGTTPPIWHLTDK, with -0.153 ± 0.077; and MAEIKEKICDYLFNVSDSSALNLAKNIGLTKARDINAVLKDMERQGDVYRQGTTPPIWHLTDK, with -0.025 ± 0.052.
Under MAEIKEKICDYLFNVSDSSALNLAKNIGLTKARDINAVLADMERQGDVYRQGTTPPIWHLTDK stands 0.083 ± 0.056; under MAEIKEKICDYLFNVSDSSALNLAKNIGLTKARDINAVLMDMERQGDVYRQGTTPPIWHLTDK, 0.122 ± 0.058; under MAEIKEKICDYLFNVSDSSALNLAKNIGLTKARDINAKLIDMERQGDVYRQGTTPPIWHLTDK, -0.387 ± 0.067.
Then MAEIKEKICDYLFNVSDSSALNLAKNIGLTKARDINACLIDMERQGDVYRQGTTPPIWHLTDK, with 0.12 ± 0.085; and MAEIKEKICDYLFNVSDSSALNLAKNIGLTKARDINAILIDMERQGDVYRQGTTPPIWHLTDK, with 0.035 ± 0.07.
Take MAEIKEKICDYLFNVSDSSALNLAKNIGLTKARDINANLIDMERQGDVYRQGTTPPIWHLTDK: the abundance fitness is -0.195 ± 0.11.
Then MAEIKEKICDYLFNVSDSSALNLAKNIGLTKARDINAPLIDMERQGDVYRQGTTPPIWHLTDK, with -0.24 ± 0.056.
Under MAEIKEKICDYLFNVSDSSALNLAKNIGLTKARDINAQLIDMERQGDVYRQGTTPPIWHLTDK stands -0.276 ± 0.075.
For MAEIKEKICDYLFNVSDSSALNLAKNIGLTKARDINAGLIDMERQGDVYRQGTTPPIWHLTDK, the abundance fitness was -0.128 ± 0.06.
Then MAEIKEKICDYLFNVSDSSALNLAKNIGLTKARDINALLIDMERQGDVYRQGTTPPIWHLTDK, with -0.253 ± 0.038; and MAEIKEKICDYLFNVSDSSALNLAKNIGLTKARDINAFLIDMERQGDVYRQGTTPPIWHLTDK, with -0.952 ± 0.21; and MAEIKEKICDYLFNVSDSSALNLAKNIGLTKARDINASLIDMERQGDVYRQGTTPPIWHLTDK, with -0.316 ± 0.057.
